Measured values reported in the supplement of paper PMC9112550, “Optimization of the antimicrobial peptide Bac7 by deep mutational scanning” (BMC Biology, 2022).

Tested on: Escherichia coli TOP10
Test: shrunken log2 fold change of peptide-encoding DNA abundance (4.5 h post-induction vs induction); higher = less antimicrobial activity (less host growth inhibition)
Details: time post-induction: 4.5 h; library: site-saturation at positions 5, 18, 19, 20
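Also: peptides expressed intracellularly from a pBAD plasmid library in pooled LB shake-flask culture, induced with 0.3% L-arabinose, DNA abundance read by NGS, three biological replicates, DESeq2 with apeglm shrinkage.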

Row | Sequence | shrunken log2 fold change
1 | RRIRPRPPRLPRPRPRPKTRPRP | 0.382
2 | RRIRYRPPRLPRPRPRPIWIPRP | -0.0319
3 | RRIRTRPPRLPRPRPRPPAMPRP | 0.294
4 | RRIRTRPPRLPRPRPRPLNSPRP | -0.347
5 | RRIRWRPPRLPRPRPRPHPFPRP | -0.42
6 | RRIRGRPPRLPRPRPRPLSWPRP | 0.781
7 | RRIRMRPPRLPRPRPRPLPQPRP | 0.742
8 | RRIRSRPPRLPRPRPRPFFEPRP | -0.161
9 | RRIRHRPPRLPRPRPRPSDVPRP | -0.042
10 | RRIRERPPRLPRPRPRPWQQPRP | 0.015
11 | RRIRWRPPRLPRPRPRPNPRPRP | 0.452
12 | RRIRPRPPRLPRPRPRPNRIPRP | -0.132
13 | RRIRDRPPRLPRPRPRPFLSPRP | 0.0846
14 | RRIRIRPPRLPRPRPRPNLTPRP | 0.0979
15 | RRIRRRPPRLPRPRPRPTSFPRP | 0.264
16 | RRIRFRPPRLPRPRPRPKILPRP | 0.205
17 | RRIRCRPPRLPRPRPRPYYMPRP | -0.904
18 | RRIRWRPPRLPRPRPRPADIPRP | 0.0169
19 | RRIRFRPPRLPRPRPRPKTSPRP | -0.0999
20 | RRIRNRPPRLPRPRPRPTHDPRP | -0.219
21 | RRIRERPPRLPRPRPRPNRTPRP | -1.51
22 | RRIRYRPPRLPRPRPRPQQWPRP | 0.155
23 | RRIRQRPPRLPRPRPRPLMYPRP | -0.608
24 | RRIRSRPPRLPRPRPRPFIPPRP | -0.629
25 | RRIRMRPPRLPRPRPRPNPVPRP | -0.0385

Row | Sequence | shrunken log2 fold change
26 | RRIRPRPPRLPRPRPRPWQCPRP | -0.0562
27 | RRIRCRPPRLPRPRPRPEFDPRP | -0.0199
28 | RRIRSRPPRLPRPRPRPRVLPRP | -0.285
29 | RRIRQRPPRLPRPRPRPAIRPRP | -0.0284
30 | RRIRDRPPRLPRPRPRPEDTPRP | 0.509
31 | RRIRHRPPRLPRPRPRPSPDPRP | -0.293
32 | RRIRDRPPRLPRPRPRPEQEPRP | -0.0197
33 | RRIRCRPPRLPRPRPRPWTKPRP | -0.402
34 | RRIRKRPPRLPRPRPRPHLMPRP | -0.129
35 | RRIRNRPPRLPRPRPRPWSDPRP | -0.0436
36 | RRIRDRPPRLPRPRPRPCYRPRP | -0.417
37 | RRIRMRPPRLPRPRPRPEPNPRP | 2.18
38 | RRIRRRPPRLPRPRPRPCAGPRP | 0.357
39 | RRIRIRPPRLPRPRPRPVYCPRP | -0.127
40 | RRIRQRPPRLPRPRPRPSWFPRP | -0.323
41 | RRIRVRPPRLPRPRPRPNKQPRP | 0.0173
42 | RRIRKRPPRLPRPRPRPPKKPRP | 0.0439
43 | RRIRFRPPRLPRPRPRPYIEPRP | -0.504
44 | RRIRFRPPRLPRPRPRPDIIPRP | 0.0368
45 | RRIRVRPPRLPRPRPRPFSIPRP | -0.349
46 | RRIRYRPPRLPRPRPRPETIPRP | -0.495
47 | RRIRFRPPRLPRPRPRPVECPRP | -0.17
48 | RRIRRRPPRLPRPRPRPFCWPRP | 0.45
49 | RRIRWRPPRLPRPRPRPQPSPRP | 0.287
50 | RRIRPRPPRLPRPRPRPQEGPRP | -0.259

Row | Sequence | shrunken log2 fold change
51 | RRIRIRPPRLPRPRPRPEVGPRP | 0.0138
52 | RRIRTRPPRLPRPRPRPHMAPRP | -0.123
53 | RRIRARPPRLPRPRPRPRAYPRP | 0.178
54 | RRIRGRPPRLPRPRPRPQICPRP | 0.156
55 | RRIRNRPPRLPRPRPRPDKIPRP | 0.159
56 | RRIRGRPPRLPRPRPRPYFIPRP | -0.336
57 | RRIRQRPPRLPRPRPRPFTIPRP | 0.0944
58 | RRIRVRPPRLPRPRPRPASKPRP | -0.0732
59 | RRIRPRPPRLPRPRPRPMEFPRP | 0.00564
60 | RRIRDRPPRLPRPRPRPQGMPRP | -0.00277
61 | RRIRDRPPRLPRPRPRPDPEPRP | 0.0311
62 | RRIRYRPPRLPRPRPRPYNDPRP | -0.0979
63 | RRIRVRPPRLPRPRPRPIMCPRP | 0.0128
64 | RRIRHRPPRLPRPRPRPHYAPRP | -0.992
65 | RRIRLRPPRLPRPRPRPPYQPRP | -0.0294
66 | RRIRIRPPRLPRPRPRPNTWPRP | -0.406
67 | RRIRWRPPRLPRPRPRPQQIPRP | -0.0385
68 | RRIRYRPPRLPRPRPRPTLSPRP | -0.0535
69 | RRIRMRPPRLPRPRPRPCMTPRP | 1.65
70 | RRIRERPPRLPRPRPRPRAAPRP | 0.448
71 | RRIRVRPPRLPRPRPRPPYYPRP | -0.363
72 | RRIRPRPPRLPRPRPRPKCQPRP | 0.0931
73 | RRIRDRPPRLPRPRPRPISFPRP | -0.0563
74 | RRIRMRPPRLPRPRPRPGVCPRP | 0.535
75 | RRIRYRPPRLPRPRPRPPNNPRP | -0.708

Row | Sequence | shrunken log2 fold change
76 | RRIRPRPPRLPRPRPRPSLEPRP | 0.0508
77 | RRIRARPPRLPRPRPRPYLPPRP | 0.0397
78 | RRIRARPPRLPRPRPRPFCPPRP | 0.11
79 | RRIRMRPPRLPRPRPRPFSEPRP | 0.273
80 | RRIRCRPPRLPRPRPRPDYPPRP | -0.221
81 | RRIRRRPPRLPRPRPRPNDHPRP | 0.0277
82 | RRIRKRPPRLPRPRPRPEWWPRP | 0.0708
83 | RRIRNRPPRLPRPRPRPLGKPRP | -0.299
84 | RRIRSRPPRLPRPRPRPLDMPRP | 0.0557
85 | RRIRYRPPRLPRPRPRPSCLPRP | -0.56
86 | RRIRNRPPRLPRPRPRPLPNPRP | -0.0288
87 | RRIRGRPPRLPRPRPRPWPNPRP | -0.0526
88 | RRIRFRPPRLPRPRPRPYFEPRP | -0.617
89 | RRIRMRPPRLPRPRPRPKSRPRP | 0.0662
90 | RRIRLRPPRLPRPRPRPDTKPRP | -0.122
91 | RRIRWRPPRLPRPRPRPRGTPRP | 0.873
92 | RRIRWRPPRLPRPRPRPQQGPRP | 0.342
93 | RRIRFRPPRLPRPRPRPIIHPRP | -0.795
94 | RRIRVRPPRLPRPRPRPAETPRP | 0.344
95 | RRIRYRPPRLPRPRPRPQDNPRP | -0.024
96 | RRIRFRPPRLPRPRPRPNKKPRP | -0.212
97 | RRIRNRPPRLPRPRPRPNRPPRP | -0.0547
98 | RRIRCRPPRLPRPRPRPEHPPRP | -0.131
99 | RRIRHRPPRLPRPRPRPGGYPRP | -0.258
100 | RRIRIRPPRLPRPRPRPSPSPRP | 0.0467

Row | Sequence | shrunken log2 fold change
101 | RRIRYRPPRLPRPRPRPWQSPRP | -0.121
102 | RRIRSRPPRLPRPRPRPWETPRP | -0.0029
103 | RRIRSRPPRLPRPRPRPRHIPRP | -0.264
104 | RRIRERPPRLPRPRPRPPQTPRP | 0.223
105 | RRIRVRPPRLPRPRPRPEHAPRP | 0.0467
106 | RRIRTRPPRLPRPRPRPWWTPRP | -0.045
107 | RRIRWRPPRLPRPRPRPSTQPRP | 0.0274
108 | RRIRERPPRLPRPRPRPLEMPRP | -0.216
109 | RRIRMRPPRLPRPRPRPEAIPRP | 2.54
110 | RRIRARPPRLPRPRPRPIYFPRP | -0.0784
111 | RRIRQRPPRLPRPRPRPYQSPRP | -0.176
112 | RRIRWRPPRLPRPRPRPVMQPRP | 0.294
113 | RRIRHRPPRLPRPRPRPGIVPRP | -0.286
114 | RRIRNRPPRLPRPRPRPTAAPRP | 0.543
115 | RRIRERPPRLPRPRPRPFKDPRP | -0.0062
116 | RRIRARPPRLPRPRPRPFPTPRP | 0.311
117 | RRIRERPPRLPRPRPRPVKAPRP | -0.0316
118 | RRIRLRPPRLPRPRPRPKHMPRP | -0.0682
119 | RRIRLRPPRLPRPRPRPNCDPRP | -0.00298
120 | RRIRSRPPRLPRPRPRPIACPRP | 0.12
121 | RRIRYRPPRLPRPRPRPTLEPRP | -0.136
122 | RRIRMRPPRLPRPRPRPHWKPRP | 0.0142
123 | RRIRNRPPRLPRPRPRPTYWPRP | -0.101
124 | RRIRYRPPRLPRPRPRPRAFPRP | -0.677
125 | RRIRWRPPRLPRPRPRPAPLPRP | 0.512
